In US20110165145A1, “IGF-II/IGF-IIE BINDING PROTEINS” (priority 2008, published 2011):

B1: X0005-H01: germlined IgG counterpart of M0064-E04 in Table 6 (antibody, V domains shown)
VH: EVQLLESGGGLVQPGGSLRLSCAASGFTFSVYDMNWVRQAPGKGLEWVSSISSSGGGTLYADSVKGRFTISRDNSKNTLYLQMNSLRAEDTAVYYCARDSDTSSYYWYYDLWGRGTLVTVSS
VL: DIQMTQSPSSLSASVGDRVTITCQASHDISNYLNWYQQKPGKAPKLLIYAASRLQSGVPSRFSGSGSGTDFTLTISSLQPEDFATYYCQQSYSFPRTFGQGTRLEIK
B2: M0068-E03: human anti-IGF-II/IGF-IIE Fab from phage display library (protein)
light: QDIQMTQSPSSLSASVGDRVTITCRASQSINTYLNWYQQKPGKAPKVLIHAASTLESGVPSRFSGSGSATEFTLTISSLQPEDFATFYCQQSYSVPFTFGPGTRLSSKRTVAAPSVFIFPPSDEQLKSGTASVVCLLNNFYPREAKVQWKVDNALQSGNSQESVTEQDSKDSTYSLSSTLTLSKADYEKHKVYACEVTHQGLSSPVTKSFNRGEC
heavy: EVQLLESGGGLVQPGGSLRLSCAASGFTFSEYVMAWVRQAPGKGLEWVSSIVSSGGYTKYADSVKGRFTISRDNSKNTLYLQMNSLRAEDTAVYYCAKDMTYSGDAFDVWGQGTMVTVSSASTKGPSVFPLAPSSKSTSGGTAALGCLVKDYFPEPVTVSWNSGALTSGVHTFPAVLQSSGLYSLSSVVTVPSSSLGTQTYICNVNHKPSNTKVDKKVEPKSCAAAHHHHHHGAAEQKLISEEDLNGAAEASSASNA

Columns and labels:
[1] = target: T1, IGF-IIE (Homo sapiens, UniProt P01344); test: Affinity measurements of IgGs by SPR (BIACORE), IGF-IIE; type: binding; conditions: IgG
T1 construct: the construct comprising amino acids 1-104, which encompass the E domain
T1 sequence (P01344 25-128): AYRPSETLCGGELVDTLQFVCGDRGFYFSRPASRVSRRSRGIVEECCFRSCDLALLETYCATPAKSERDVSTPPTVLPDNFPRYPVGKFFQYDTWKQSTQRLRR

[2] = target: T2, IGF-II (Homo sapiens, UniProt P01344); test: IGF-II stimulated Ba/F3 cell proliferation, sFabs (MTS assay); type: cell-based; conditions: 72 h
T2 construct: IGF-II (amino acids 1-67)
T2 sequence (P01344 25-91): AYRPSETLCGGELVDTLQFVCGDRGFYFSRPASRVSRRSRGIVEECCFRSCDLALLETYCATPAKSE
Protocol: (§1) Ba/F3 cells were cultured in complete medium (90% RPMI 1640+10% FBS+10 ng/ml IL-3+2 mM L-Alanyl-Glutamine+1×Pen/Strep). Cells at passage 6 to 15 were used for the high throughput cell proliferation assay. IGF-II (67aa), IGF-IIE (104aa) were at 10 μg/ml in PBS, kept at −70° C. IL-4 was purchased from R&D system, Cat#: 404-ML, and anti-IGF-II antibody was purchased from R&D system, Cat#: MAB292. 34 sFabs from batch 1 and batch 2 in a median scale purification, all in PBS, were screened.
(§2) IGF-II was prepared at concentration of 400 ng/ml; IGF-IIE at 800 ng/ml; sFab at 200 μg/ml in PBS. 25 μl of IGF-II or IGF-IIE was preincubated with 25 μl of sFab in 96-well plate, triplicate for each sFab, 30 min at room temperature in a total volume of 50 μl/well. […]
(§3) The MTS assay was performed as follows: • Add 20 μl of CellTiter 96 Aqueous One Solution Reagent to each well • Incubate at 37° C., 5% CO2 for additional 4 h. • Read plate for absorbance at a microplate spectrophotometer at wavelength 490 nm. […]
(§4) MTS Assay: • Add 20 μl of CellTiter 96 Aqueous One Solution Reagent to each well • Incubate at 37° C., 5% CO2 for additional 4 h. • Read plate for absorbance at a microplate spectrophotometer at wavelength 490 nm.

[3] = target: T1, IGF-IIE; test: IGF-IIE stimulated Ba/F3 cell proliferation, sFabs (MTS assay); type: cell-based; conditions: 72 h
Protocol: as §1, §2, §3, §4

Molecule | Kd [1] | inhibitory effect on IGF-II stimulated Ba/F3 cell proliferation (screening) ([2]; sFab 50 μg/ml (1 μM), MTS) | inhibitory effect on IGF-II stimulated Ba/F3 cell proliferation (dose response, in words) ([2]; sFab 50 μg/ml down to 0) | inhibitory effect on IGF-IIE stimulated Ba/F3 cell proliferation (screening) ([3]; sFab 50 μg/ml (1 μM), MTS) | inhibitory effect on IGF-IIE stimulated Ba/F3 cell proliferation (dose response, in words) ([3]; sFab 50 μg/ml down to 0)
B1 | 0.26 nM | – | – | – | –
B2 | – | significant inhibitory effect | significant inhibitory effect | significant inhibitory effect | significant inhibitory effect
